According to paper PMC9646879, “Cryo-EM reveals the architecture of the PELP1-WDR18 molecular scaffold” (Nature Communications, 2022):

B1: C-terminally HA-tagged WDR18 (full length) (natural protein, human, UniProt Q9BV38 1-432, looked up)
chain: MAAPMEVAVCTDSAAPMWSCIVWELHSGANLLTYRGGQAGPRGLALLNGEYLLAAQLGKNYISAWELQRKDQLQQKIMCPGPVTCLTASPNGLYVLAGVAESIHLWEVSTGNLLVILSRHYQDVSCLQFTGDSSHFISGGKDCLVLVWSLCSVLQADPSRIPAPRHVWSHHALPITDLHCGFGGPLARVATSSLDQTVKLWEVSSGELLLSVLFDVSIMAVTMDLAEHHMFCGGSEGSIFQVDLFTWPGQRERSFHPEQDAGKVFKGHRNQVTCLSVSTDGSVLLSGSHDETVRLWDVQSKQCIRTVALKGPVTNAAILLAPVSMLSSDFRPSLPLPHFNKHLLGAEHGDEPRHGGLTLRLGLHQQGSEPSYLDRTEQLQAVLCSTMEKSVLGGQDQLRVRVTELEDEVRNLRKINRDLFDFSTRFITRPAK
notes: WDR18, human, full length; The HA tag is stated for the cryo-EM sample; Two copies stand in the heterotetramer; source: HEK293FT, transiently transfected; in lysate (co-IP) and co-purified with FLAG-tagged PELP1 constructs on anti-FLAG gel (cryo-EM, cross-linking); not shown: HA, C-terminal, kept
B2: N-terminally FLAG-tagged PELP1 Rix1 domain (1-642aa) (domain or fragment)
chain: not shown
notes: PELP1, human, N-terminal Rix1 domain, residues 1-642; Two copies stand in the PELP1-WDR18 heterotetramer of the cryo-EM structure; also called Rix1 domain of PELP1; source: HEK293FT, transiently transfected; not shown: FLAG, N-terminal, kept
B3: epitope-tagged SENP3 (enzyme)
chain: not shown
notes: SENP3, human; Blots used anti-HA, anti-GFP and anti-MYC antibodies; also called SUMO protease SENP3; source: HEK293FT, transiently transfected; in lysate (co-IP) and co-purified with C-terminal FLAG-tagged PELP1 (cross-linking)

Legend:
epitope-tagged SENP3 = target: B3; test: cross-linking; BS3 cross-linking with mass spectrometry of the Rix1 complex purified via the C-terminal FLAG tag on full-length PELP1; 2.0 uM complex, 50 mM Hepes pH 7.3, 600 mM NaCl, 5 mM MgCl2, 5% glycerol, room temperature 10 min; BS3 1.2 mM (methods) or 0.12 mM (results); settings: both partners purified
Chain of epitope-tagged SENP3 (Q9H4L4 whole entry): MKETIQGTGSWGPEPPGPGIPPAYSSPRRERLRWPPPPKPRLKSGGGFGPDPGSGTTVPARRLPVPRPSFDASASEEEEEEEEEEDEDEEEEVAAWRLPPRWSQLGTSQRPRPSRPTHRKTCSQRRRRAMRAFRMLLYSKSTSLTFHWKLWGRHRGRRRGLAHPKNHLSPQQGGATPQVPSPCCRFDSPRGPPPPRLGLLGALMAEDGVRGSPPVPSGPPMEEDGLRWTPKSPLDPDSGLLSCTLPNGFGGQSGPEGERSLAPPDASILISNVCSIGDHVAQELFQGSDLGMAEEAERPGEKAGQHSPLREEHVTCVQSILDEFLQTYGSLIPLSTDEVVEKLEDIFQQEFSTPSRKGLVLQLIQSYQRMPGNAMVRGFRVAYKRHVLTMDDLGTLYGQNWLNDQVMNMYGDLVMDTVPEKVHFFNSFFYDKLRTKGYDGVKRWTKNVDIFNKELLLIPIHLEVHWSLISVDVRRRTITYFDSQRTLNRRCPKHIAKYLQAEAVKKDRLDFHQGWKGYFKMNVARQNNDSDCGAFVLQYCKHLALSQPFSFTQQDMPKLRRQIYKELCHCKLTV

[1] = target: T1, C-terminal FLAG-tagged PELP1 (full length) (human, UniProt Q8IZL8 1-1130); test: as above; settings: both partners purified
T1 construct: also called C-terminal PELP1 IP; source: HEK293FT, transiently transfected; in lysate (co-IP) and purified with the Rix1 complex via the C-terminal FLAG tag (cross-linking); not shown: FLAG, C-terminal, kept
T1 sequence (Q8IZL8 whole entry): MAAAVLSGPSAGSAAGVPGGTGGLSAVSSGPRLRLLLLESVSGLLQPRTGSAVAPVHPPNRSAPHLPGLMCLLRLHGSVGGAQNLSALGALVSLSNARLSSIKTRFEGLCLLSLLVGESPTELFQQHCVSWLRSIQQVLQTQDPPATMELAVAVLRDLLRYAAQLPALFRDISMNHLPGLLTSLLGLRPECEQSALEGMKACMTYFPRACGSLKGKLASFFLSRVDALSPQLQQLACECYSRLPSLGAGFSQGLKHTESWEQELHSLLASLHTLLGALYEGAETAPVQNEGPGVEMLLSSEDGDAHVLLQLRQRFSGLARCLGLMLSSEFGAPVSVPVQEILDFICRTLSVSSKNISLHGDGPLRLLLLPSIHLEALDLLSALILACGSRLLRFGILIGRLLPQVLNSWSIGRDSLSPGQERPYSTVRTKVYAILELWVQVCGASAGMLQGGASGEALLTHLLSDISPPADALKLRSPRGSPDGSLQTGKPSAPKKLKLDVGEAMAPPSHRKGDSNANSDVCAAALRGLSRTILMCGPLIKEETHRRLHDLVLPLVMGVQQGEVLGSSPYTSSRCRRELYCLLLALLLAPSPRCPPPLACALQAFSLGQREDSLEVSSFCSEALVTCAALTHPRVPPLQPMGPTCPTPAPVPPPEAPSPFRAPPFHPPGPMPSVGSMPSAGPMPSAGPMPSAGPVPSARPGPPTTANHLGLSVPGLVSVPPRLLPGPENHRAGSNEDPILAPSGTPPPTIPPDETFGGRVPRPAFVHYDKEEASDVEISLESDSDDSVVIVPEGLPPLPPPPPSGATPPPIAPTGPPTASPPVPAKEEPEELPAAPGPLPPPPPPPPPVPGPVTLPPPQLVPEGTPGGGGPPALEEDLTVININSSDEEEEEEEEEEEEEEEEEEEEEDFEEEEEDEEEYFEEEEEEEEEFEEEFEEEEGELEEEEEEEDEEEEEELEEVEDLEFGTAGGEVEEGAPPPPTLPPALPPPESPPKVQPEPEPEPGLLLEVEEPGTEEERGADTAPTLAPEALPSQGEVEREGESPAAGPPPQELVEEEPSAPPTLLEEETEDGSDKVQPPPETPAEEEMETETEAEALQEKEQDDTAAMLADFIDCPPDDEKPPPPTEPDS

[2] = target: B2; test: cross-linking; BS3 cross-linking with mass spectrometry of the PELP1 Rix1 domain-WDR18 sub-complex purified via the N-terminal FLAG tag; 6.0 uM complex, 1.0 mM BS3, 50 mM Hepes pH 7.3, 600 mM NaCl, 5 mM MgCl2, 5% glycerol, room temperature 10 min; settings: both partners purified
[3] = target: the molecule itself; test: cryo-EM structure; PELP1 Rix1 domain and WDR18 co-expressed in HEK293FT and co-purified on anti-FLAG gel; 150 mM NaCl, 50 mM Hepes pH 7.7, 5 mM MgCl2; 0.24 mg/ml; C2 symmetry, 2.7 Å

binding result (epitope-tagged SENP3)	binding result [1]	binding result [2]	Binder	stoichiometry N [3]
binds	binds	binds	B1	–
–	–	–	B2	2
–	binds	–	B3	–
